{
  "source": "patent US20100266614A1",
  "about": "(AstraZeneca / MedImmune, published 2010)",
  "binders": {"B1": {"name": "clone 3 (PFFF) (Fab, V domains shown)", "VH": "QVTLRESGPALVKPTQTLTLTCTFSGFSLSTPGMSVGWIRQPPGKALEWLADIWWDDKKDYNPSLKSRLTISKDTSKNQVVLKVTNMDPADTATYYCARSMITNFYFDVWGQGTTVTVSS", "VL": "DIQMTQSPSTLSASVGDRVTITCSASSSVGYMHWYQQKPGKAPKLLIYDTFKLASGVPSRFSGSGSGTEFTLTISSLQPDDFATYYCFQGSFYPFTFGGGTKVEIK", "notes": "also called 3 (n = 3)"}, "B2": {"name": "clone 9 (PFSW) (antibody, V domains shown)", "VH": "B1 VH", "VL": "B1 VL with F51S, F92W", "notes": "also called 9 (n = 2)"}, "B3": {"name": "clone 14 (SFFW) (antibody, V domains shown)", "VH": "B1 VH with P32S", "VL": "B1 VL with F92W"}, "B4": {"name": "IX-493 (SWSG), basic or reference antibody (Fab, V domains shown)", "VH": "B1 VH with P32S, F105W", "VL": "B1 VL with F51S, F92G", "notes": "also called basic antibody"}, "B5": {"name": "clone 6 (PFYF) (antibody, V domains shown)", "VH": "B1 VH", "VL": "B1 VL with F51Y"}, "B6": {"name": "clone 1 (AFSF) (Fab, V domains shown)", "VH": "B1 VH with P32A", "VL": "B1 VL with F51S"}, "B7": {"name": "clone 4 (PFFY) (antibody, V domains shown)", "VH": "B1 VH", "VL": "B1 VL with F92Y", "notes": "also called 4 (n = 3)"}, "B8": {"name": "clone 12 (PWFF) (antibody, V domains shown)", "VH": "B1 VH with F105W", "VL": "B1 VL", "notes": "also called 12 (n = 2)"}, "B9": {"name": "clone 18 (SFFG) (antibody, V domains shown)", "VH": "B1 VH with P32S", "VL": "B1 VL with F92G", "notes": "also called 18 (n = 2)"}, "B10": {"name": "clone 5 (PFFW) (antibody, V domains shown)", "VH": "B1 VH", "VL": "B1 VL with F92W", "notes": "also called 5 (n = 3)"}, "B11": {"name": "clone 13 (SFFF) (antibody, V domains shown)", "VH": "B1 VH with P32S", "VL": "B1 VL", "notes": "also called 13 (n = 3)"}, "B12": {"name": "clone 15 (AFSG) (antibody, V domains shown)", "VH": "B1 VH with P32A", "VL": "B1 VL with F51S, F92G", "notes": "also called 15 (n = 2)"}, "B13": {"name": "clone 2 (AFFG) (Fab, V domains shown)", "VH": "B1 VH with P32A", "VL": "B1 VL with F92G"}, "B14": {"name": "clone 20 (SFSF) (antibody, V domains shown)", "VH": "B1 VH with P32S", "VL": "B1 VL with F51S"}, "B15": {"name": "clone 7 (PFFG) (antibody, V domains shown)", "VH": "B1 VH", "VL": "B1 VL with F92G", "notes": "also called 7 (n = 4)"}, "B16": {"name": "clone 21 (SWYF) (antibody, V domains shown)", "VH": "B1 VH with P32S, F105W", "VL": "B1 VL with F51Y"}, "B17": {"name": "clone 16 (PFSG) (antibody, V domains shown)", "VH": "B1 VH", "VL": "B1 VL with F51S, F92G", "notes": "also called 16 (n = 2)"}, "B18": {"name": "clone 17 (PWSW) (antibody, V domains shown)", "VH": "B1 VH with F105W", "VL": "B1 VL with F51S, F92W"}, "B19": {"name": "clone 19 (SFSW) (antibody, V domains shown)", "VH": "B1 VH with P32S", "VL": "B1 VL with F51S, F92W"}, "B20": {"name": "clone 11 (PWFW) (antibody, V domains shown)", "VH": "B1 VH with F105W", "VL": "B1 VL with F92W"}, "B21": {"name": "clone 10 (PFSF) (antibody, V domains shown)", "VH": "B1 VH", "VL": "B1 VL with F51S"}, "B22": {"name": "clone 23 (AFFY) (Fab, V domains shown)", "VH": "B1 VH with P32A", "VL": "B1 VL with F92Y"}, "B23": {"name": "clone 22 (AFFF) (Fab, V domains shown)", "VH": "B1 VH with P32A", "VL": "B1 VL", "notes": "also called 4D2-7"}, "B24": {"name": "16 (antibody, V domains shown)", "VH": "B1 VH with P32A, F105W", "VL": "B1 VL with F51S, F92G", "notes": "also called AWSG"}},
  "note": "Residue numbers refer to the chain shown, from its start.",
  "data": [
    {"target": "T1, RSV F protein (C-terminal truncated F protein secreted from a recombinant baculovirus) (respiratory syncytial virus (RSV), UniProt P03420 26-524)", "T1 construct": "also called F antigen; RSV F antigen", "T1 sequence (P03420 26-109, chain 1 of 2)": "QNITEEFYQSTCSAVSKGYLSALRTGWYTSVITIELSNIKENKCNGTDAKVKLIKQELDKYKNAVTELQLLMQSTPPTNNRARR", "T1 sequence (P03420 137-524, chain 2 of 2)": "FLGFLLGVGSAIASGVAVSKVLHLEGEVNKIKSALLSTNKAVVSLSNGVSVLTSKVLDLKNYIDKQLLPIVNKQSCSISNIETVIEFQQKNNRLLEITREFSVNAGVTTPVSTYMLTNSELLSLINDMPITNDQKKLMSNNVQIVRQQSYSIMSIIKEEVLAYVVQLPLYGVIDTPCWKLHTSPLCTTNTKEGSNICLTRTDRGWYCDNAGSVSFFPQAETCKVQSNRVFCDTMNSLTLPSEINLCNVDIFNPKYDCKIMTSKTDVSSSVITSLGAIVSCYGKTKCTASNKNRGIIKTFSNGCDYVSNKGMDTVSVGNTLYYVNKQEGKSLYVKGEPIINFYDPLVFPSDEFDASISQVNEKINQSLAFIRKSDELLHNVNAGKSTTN", "assay": "ELISA titration of antibody on 500 ng RSV F antigen; qualitative score from titration curves", "units": {"Ag Score": "arbitrary score 0-4"}, "values": [
      {"binder": "B1", "Ag Score": 4},
      {"binder": "B2", "Ag Score": 3},
      {"binder": "B3", "Ag Score": 2.5},
      {"binder": "B4", "Ag Score": 0.1},
      {"binder": "B5", "Ag Score": 3.5},
      {"binder": "B6", "Ag Score": 4},
      {"binder": "B7", "Ag Score": 3.5},
      {"binder": "B8", "Ag Score": 2.5},
      {"binder": "B9", "Ag Score": 2},
      {"binder": "B10", "Ag Score": 3.5},
      {"binder": "B11", "Ag Score": 2.5},
      {"binder": "B12", "Ag Score": 2.5},
      {"binder": "B13", "Ag Score": 4},
      {"binder": "B14", "Ag Score": 2},
      {"binder": "B15", "Ag Score": 3},
      {"binder": "B16", "Ag Score": 2},
      {"binder": "B17", "Ag Score": 2},
      {"binder": "B18", "Ag Score": 2},
      {"binder": "B19", "Ag Score": 2},
      {"binder": "B20", "Ag Score": 3},
      {"binder": "B21", "Ag Score": 3}
    ]},
    {"target": "T1, RSV F protein (C-terminal truncated F …)", "assay": "SPR (BIAcore), F protein immobilized by EDC/NHS, Fab injected; kon and koff measured separately", "units": {"koff": "s⁻¹", "kon": "M⁻¹ s⁻¹"}, "values": [
      {"binder": "B1", "koff": "1.35e-06", "kon": 110000},
      {"binder": "B6", "koff": "1.62e-06", "kon": 113000},
      {"binder": "B22", "koff": "3.03e-07", "kon": 122000},
      {"binder": "B23", "koff": "3.7e-07", "kon": 134000},
      {"binder": "B13", "koff": "1.82e-06", "kon": 133000}
    ]},
    {"target": "T1, RSV F protein (C-terminal truncated F …)", "assay": "SPR (BIAcore), F protein immobilized by EDC/NHS, Fab injected; calculated from the rate constants", "units": {"Ka": "M⁻¹"}, "values": [
      {"binder": "B1", "Ka": "8.15e+10"},
      {"binder": "B6", "Ka": "6.98e+10"},
      {"binder": "B22", "Ka": "4.03e+11"},
      {"binder": "B23", "Ka": "3.62e+11"},
      {"binder": "B13", "Ka": "7.31e+10"}
    ]},
    {"target": "T1, RSV F protein (C-terminal truncated F …)", "assay": "SPR (BIAcore), from the kinetic constants of Table 4", "units": {"Kd": "pM"}, "values": [
      {"binder": "B1", "Kd": "~12.3"},
      {"binder": "B6", "Kd": "~14.3"},
      {"binder": "B22", "Kd": "~2.5"},
      {"binder": "B23", "Kd": "~2.8"},
      {"binder": "B13", "Kd": "~13.7"}
    ]},
    {"target": "T1, RSV F protein (C-terminal truncated F …)", "assay": "ELISA titration of antibody on RSV F antigen, O.D. 560", "units": {"EC50 (read off the curve)": "µg/mL"}, "values": [
      {"binder": "B4", "EC50 (read off the curve)": "~0.2"},
      {"binder": "B5", "EC50 (read off the curve)": "~0.02"},
      {"binder": "B7", "EC50 (read off the curve)": "~0.01"},
      {"binder": "B24", "EC50 (read off the curve)": "~0.03"},
      {"binder": "B18", "EC50 (read off the curve)": "~0.04"}
    ]}
  ]
}
